{"source": "patent US20260042847A1", "about": "“CYSTEINE ENGINEERED ANTIBODY CONSTRUCTS, CONJUGATES AND METHODS OF USE” (ZYMEWORKS INC., priority 2021, published 2026)", "system": "mid c-Met expressing colorectal cancer xenograft model HT-29", "assay": "In vivo anti-tumor activity, HT-29 xenograft", "parameters": "species or system balb/c nude mice", "settings": "single IV dose, toxin-matched 6 (DAR1), 3 (DAR2), 2 (DAR3), 1.5 (DAR4) mg/kg, FIG. 7A", "protocol": "For the HT-29 model, tumor cell suspensions (3×10^6 cells in 0.1 ml PBS) were implanted subcutaneously into balb/c nude mice. When mean tumor volume reached ˜160 mm3, the animals were randomly assigned to groups (n=8 per group) and treated with a single IV dose of test articles as shown in Table 14.1. Dose levels of ADCs at different DARs were molar matched to toxin. Tumor volume and body weight were measured twice weekly with a study duration of 32 days."}
{"molecule": "v17427-MCvcPABC-MMAE (conjugate, chains of the INN, looked up, IgG, HetFc MC-vc-PABC-MMAE) VH: QVQLVQSGAEVKKPGASVKVSCKASGYIFTAYTMHWVRQAPGQGLEWMGWIKPNNGLANYAQKFQGRVTMTRDTSISTAYMELSRLRSDDTAVYYCARSEITTEFDYWGQGTLVTVSS VL: DIVMTQSPDSLAVSLGERATINCKSSESVDSYANSFLHWYQQKPGQPPKLLIYRASTRESGVPDRFSGSGSGTDFTLTISSLQAEDVAVYYCQQSKEDPLTFGGGTKVEIK", "values": [{"measurement": "tumor growth inhibition compared to vehicle", "value": "did not significantly inhibit tumor growth"}]}
